Experimental data reported in US8067371.

Legend:
[1] = target: human RAGE 82G (common allele, full-length) (human) (UniProt Q15109); assay: cell-based or functional assay
[2] = target: human RAGE 82S (variant allele, G82S) (human) (UniProt Q15109); assay: cell-based or functional assay
[3] = target: RAGE 82G/82S on human mononuclear phagocytes of heterozygous subjects (human) (UniProt Q15109); assay: cell-based or functional assay
[4] = target: human RAGE 82G (common allele, full-length) (human) (UniProt Q15109); assay: radioligand binding of 125I-EN-RAGE on stably transfected CHO cells, equilibrium analysis by Klotz and Hunston
[5] = target: human RAGE 82S (variant allele, G82S) (human) (UniProt Q15109); assay: as above

IL-6 in culture supernatant (ELISA), human MPs bearing RAGE 82G exposed to EN-RAGE [1]: 55 pg/mL
MMP-9 activity (zymography), human MPs bearing RAGE 82G, EN-RAGE against basal [1]: 2.3 fold
NF-kB nuclear binding activity by EMSA, CHO transfectants, EN-RAGE against BSA [1]: 2.4 fold
TNF-alpha in culture supernatant (ELISA), human MPs bearing RAGE 82G exposed to EN-RAGE [1]: 470 pg/mL
activation of MEK 1/2, human MPs bearing RAGE 82G, EN-RAGE against unstimulated cells [1]: 2.6 fold
activation of p44/p42 MAP kinases, human MPs bearing RAGE 82G, EN-RAGE against unstimulated cells [1]: 2.3 fold
phosphorylated MEK 1/2 by immunoblotting, CHO transfectants, EN-RAGE 10 ug/ml against BSA [1]: 2.2 fold
phosphorylated p44/42 MAP kinases by immunoblotting, CHO transfectants, EN-RAGE 10 ug/ml against BSA [1]: 1.9 fold
NF-kB gel shift band intensity by EMSA, CHO transfectants, EN-RAGE against BSA [2]: 5.1 fold
RAGE-mediated NF-kB activation, RAGE 82S compared with 82G [2]: 2.1 fold
phosphorylated MEK 1/2 by immunoblotting, CHO transfectants, EN-RAGE 10 ug/ml against BSA [2]: 3.6 fold
phosphorylated p44/42 MAP kinases by immunoblotting, CHO transfectants, EN-RAGE 10 ug/ml against BSA [2]: 4.1 fold
phosphorylation of MEK 1/2, CHO cells with RAGE 82S compared with RAGE 82G [2]: 1.6 fold
phosphorylation of p44/p42 MAP kinases, CHO cells with RAGE 82S compared with RAGE 82G [2]: 2.2 fold
EN-RAGE-mediated MMP-9 activity, MPs bearing RAGE 82G/82S against RAGE 82G [3]: 1.9 fold
IL-6 in EN-RAGE-stimulated MPs, RAGE 82G/82S compared with RAGE 82G [3]: 2.9 fold
IL-6 in culture supernatant (ELISA), human MPs bearing RAGE 82G/82S exposed to EN-RAGE [3]: 160 pg/mL
MMP-9 activity (zymography), human MPs bearing RAGE 82G/82S, EN-RAGE against baseline [3]: 4.3 fold
TNF-alpha in EN-RAGE-stimulated MPs, RAGE 82G/82S compared with RAGE 82G [3]: 1.8 fold
TNF-alpha in culture supernatant (ELISA), human MPs bearing RAGE 82G/82S exposed to EN-RAGE [3]: 850 pg/mL
phosphorylated MEK 1/2, human MPs, EN-RAGE against unstimulated cells [3]: 4.5 fold
phosphorylated p44 and p42 MAP kinases, human MPs, EN-RAGE against unstimulated cells [3]: 4.3 fold
Kd [4]: 122 nM
Kd [5]: 77 nM
B1: EN-RAGE (Extracellular Newly-Identified RAGE binding protein) (ligand, from a related filing)
chain: TKLEDHLEGIINIFHQYSVRVGHFDTLNKRELKQLITKELPKTLQNTKDQPTIDKIFQDLDADKDGAVSFEEFVVLVSRVLKTAHIDIHK
